Measurements taken from US20210388087A1 (Chugai, published 2021).

T1: Human CD3eg linker (human)
T1 construct: Single-chain construct; also called recombinant human CD3
T1 chain: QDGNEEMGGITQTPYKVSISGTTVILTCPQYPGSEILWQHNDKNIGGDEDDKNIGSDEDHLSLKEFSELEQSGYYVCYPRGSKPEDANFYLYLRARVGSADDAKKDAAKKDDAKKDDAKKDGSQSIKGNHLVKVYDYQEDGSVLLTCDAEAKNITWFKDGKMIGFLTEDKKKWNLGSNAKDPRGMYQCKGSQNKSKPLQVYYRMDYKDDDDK


Molecular target: T1, Human CD3eg linker
Test: SPR; fold vs parent H183/L072

| Binder | fold change of affinity [fold] |
| --- | --- |
| H183/L072 VL E27aI (antibody, name in Kabat numbering, V domains shown) VH: QVQLVESGGGLVQPGRSLRLSCAASGFTFSNAWMHWVRQAPGKGLEWVAQIKDKGNAYAAYYAPSVKGRFTISRDDSKNSIYLQMNSLKTEDTAVYYCHYVHYASASTVLPAFGVDAWGQGTTVTVSS VL: DIVMTQSPLSLPVTPGEPASISCQASQILVHMNRNTYLHWYQQKPGQAPRLLIYKVSNRFPGVPDRFSGSGSGTDFTLKISRVEAEDVGVYYCAQGTSVPFTFGQGTKLEIK | 1.1 |
| H183/L072 VL E27aK (antibody, name in Kabat numbering, V domains shown) VH: QVQLVESGGGLVQPGRSLRLSCAASGFTFSNAWMHWVRQAPGKGLEWVAQIKDKGNAYAAYYAPSVKGRFTISRDDSKNSIYLQMNSLKTEDTAVYYCHYVHYASASTVLPAFGVDAWGQGTTVTVSS VL: DIVMTQSPLSLPVTPGEPASISCQASQKLVHMNRNTYLHWYQQKPGQAPRLLIYKVSNRFPGVPDRFSGSGSGTDFTLKISRVEAEDVGVYYCAQGTSVPFTFGQGTKLEIK | 1.1 |
| H183/L072 VL E27aQ (antibody, name in Kabat numbering, V domains shown) VH: QVQLVESGGGLVQPGRSLRLSCAASGFTFSNAWMHWVRQAPGKGLEWVAQIKDKGNAYAAYYAPSVKGRFTISRDDSKNSIYLQMNSLKTEDTAVYYCHYVHYASASTVLPAFGVDAWGQGTTVTVSS VL: DIVMTQSPLSLPVTPGEPASISCQASQQLVHMNRNTYLHWYQQKPGQAPRLLIYKVSNRFPGVPDRFSGSGSGTDFTLKISRVEAEDVGVYYCAQGTSVPFTFGQGTKLEIK | 1.2 |
| H183/L072 VL E27aM (antibody, name in Kabat numbering, V domains shown) VH: QVQLVESGGGLVQPGRSLRLSCAASGFTFSNAWMHWVRQAPGKGLEWVAQIKDKGNAYAAYYAPSVKGRFTISRDDSKNSIYLQMNSLKTEDTAVYYCHYVHYASASTVLPAFGVDAWGQGTTVTVSS VL: DIVMTQSPLSLPVTPGEPASISCQASQMLVHMNRNTYLHWYQQKPGQAPRLLIYKVSNRFPGVPDRFSGSGSGTDFTLKISRVEAEDVGVYYCAQGTSVPFTFGQGTKLEIK | 1.2 |
| H183/L072 VL E27aW (antibody, name in Kabat numbering, V domains shown) VH: QVQLVESGGGLVQPGRSLRLSCAASGFTFSNAWMHWVRQAPGKGLEWVAQIKDKGNAYAAYYAPSVKGRFTISRDDSKNSIYLQMNSLKTEDTAVYYCHYVHYASASTVLPAFGVDAWGQGTTVTVSS VL: DIVMTQSPLSLPVTPGEPASISCQASQWLVHMNRNTYLHWYQQKPGQAPRLLIYKVSNRFPGVPDRFSGSGSGTDFTLKISRVEAEDVGVYYCAQGTSVPFTFGQGTKLEIK | 1.1 |
| H183/L072 VL E27aS (antibody, name in Kabat numbering, V domains shown) VH: QVQLVESGGGLVQPGRSLRLSCAASGFTFSNAWMHWVRQAPGKGLEWVAQIKDKGNAYAAYYAPSVKGRFTISRDDSKNSIYLQMNSLKTEDTAVYYCHYVHYASASTVLPAFGVDAWGQGTTVTVSS VL: DIVMTQSPLSLPVTPGEPASISCQASQSLVHMNRNTYLHWYQQKPGQAPRLLIYKVSNRFPGVPDRFSGSGSGTDFTLKISRVEAEDVGVYYCAQGTSVPFTFGQGTKLEIK | 1.3 |
| H183/L072 VL E27aL (antibody, name in Kabat numbering, V domains shown) VH: QVQLVESGGGLVQPGRSLRLSCAASGFTFSNAWMHWVRQAPGKGLEWVAQIKDKGNAYAAYYAPSVKGRFTISRDDSKNSIYLQMNSLKTEDTAVYYCHYVHYASASTVLPAFGVDAWGQGTTVTVSS VL: DIVMTQSPLSLPVTPGEPASISCQASQLLVHMNRNTYLHWYQQKPGQAPRLLIYKVSNRFPGVPDRFSGSGSGTDFTLKISRVEAEDVGVYYCAQGTSVPFTFGQGTKLEIK | 1.2 |
| H183/L072 VL E27aT (antibody, name in Kabat numbering, V domains shown) VH: QVQLVESGGGLVQPGRSLRLSCAASGFTFSNAWMHWVRQAPGKGLEWVAQIKDKGNAYAAYYAPSVKGRFTISRDDSKNSIYLQMNSLKTEDTAVYYCHYVHYASASTVLPAFGVDAWGQGTTVTVSS VL: DIVMTQSPLSLPVTPGEPASISCQASQTLVHMNRNTYLHWYQQKPGQAPRLLIYKVSNRFPGVPDRFSGSGSGTDFTLKISRVEAEDVGVYYCAQGTSVPFTFGQGTKLEIK | 1.3 |
| H183/L072 VL E27aV (antibody, name in Kabat numbering, V domains shown) VH: QVQLVESGGGLVQPGRSLRLSCAASGFTFSNAWMHWVRQAPGKGLEWVAQIKDKGNAYAAYYAPSVKGRFTISRDDSKNSIYLQMNSLKTEDTAVYYCHYVHYASASTVLPAFGVDAWGQGTTVTVSS VL: DIVMTQSPLSLPVTPGEPASISCQASQVLVHMNRNTYLHWYQQKPGQAPRLLIYKVSNRFPGVPDRFSGSGSGTDFTLKISRVEAEDVGVYYCAQGTSVPFTFGQGTKLEIK | 1 |
| H183/L072 VL E27aP (antibody, name in Kabat numbering, V domains shown) VH: QVQLVESGGGLVQPGRSLRLSCAASGFTFSNAWMHWVRQAPGKGLEWVAQIKDKGNAYAAYYAPSVKGRFTISRDDSKNSIYLQMNSLKTEDTAVYYCHYVHYASASTVLPAFGVDAWGQGTTVTVSS VL: DIVMTQSPLSLPVTPGEPASISCQASQPLVHMNRNTYLHWYQQKPGQAPRLLIYKVSNRFPGVPDRFSGSGSGTDFTLKISRVEAEDVGVYYCAQGTSVPFTFGQGTKLEIK | 1 |
| H183/L072 VL E27aR (antibody, name in Kabat numbering, V domains shown) VH: QVQLVESGGGLVQPGRSLRLSCAASGFTFSNAWMHWVRQAPGKGLEWVAQIKDKGNAYAAYYAPSVKGRFTISRDDSKNSIYLQMNSLKTEDTAVYYCHYVHYASASTVLPAFGVDAWGQGTTVTVSS VL: DIVMTQSPLSLPVTPGEPASISCQASQRLVHMNRNTYLHWYQQKPGQAPRLLIYKVSNRFPGVPDRFSGSGSGTDFTLKISRVEAEDVGVYYCAQGTSVPFTFGQGTKLEIK | 1.2 |
| H183/L072 VL E27aN (antibody, name in Kabat numbering, V domains shown) VH: QVQLVESGGGLVQPGRSLRLSCAASGFTFSNAWMHWVRQAPGKGLEWVAQIKDKGNAYAAYYAPSVKGRFTISRDDSKNSIYLQMNSLKTEDTAVYYCHYVHYASASTVLPAFGVDAWGQGTTVTVSS VL: DIVMTQSPLSLPVTPGEPASISCQASQNLVHMNRNTYLHWYQQKPGQAPRLLIYKVSNRFPGVPDRFSGSGSGTDFTLKISRVEAEDVGVYYCAQGTSVPFTFGQGTKLEIK | 1.1 |

Next, values leading:

| fold change of affinity [fold] | Binder |
| --- | --- |
| 3.4 | H183/L072 VL F55E (antibody, name in Kabat numbering, V domains shown) VH: QVQLVESGGGLVQPGRSLRLSCAASGFTFSNAWMHWVRQAPGKGLEWVAQIKDKGNAYAAYYAPSVKGRFTISRDDSKNSIYLQMNSLKTEDTAVYYCHYVHYASASTVLPAFGVDAWGQGTTVTVSS VL: DIVMTQSPLSLPVTPGEPASISCQASQELVHMNRNTYLHWYQQKPGQAPRLLIYKVSNREPGVPDRFSGSGSGTDFTLKISRVEAEDVGVYYCAQGTSVPFTFGQGTKLEIK |
| 1.2 | H183/L072 VL E27aY (antibody, name in Kabat numbering, V domains shown) VH: QVQLVESGGGLVQPGRSLRLSCAASGFTFSNAWMHWVRQAPGKGLEWVAQIKDKGNAYAAYYAPSVKGRFTISRDDSKNSIYLQMNSLKTEDTAVYYCHYVHYASASTVLPAFGVDAWGQGTTVTVSS VL: DIVMTQSPLSLPVTPGEPASISCQASQYLVHMNRNTYLHWYQQKPGQAPRLLIYKVSNRFPGVPDRFSGSGSGTDFTLKISRVEAEDVGVYYCAQGTSVPFTFGQGTKLEIK |
| 7.4 | H183/L072 VL F55H (antibody, name in Kabat numbering, V domains shown) VH: QVQLVESGGGLVQPGRSLRLSCAASGFTFSNAWMHWVRQAPGKGLEWVAQIKDKGNAYAAYYAPSVKGRFTISRDDSKNSIYLQMNSLKTEDTAVYYCHYVHYASASTVLPAFGVDAWGQGTTVTVSS VL: DIVMTQSPLSLPVTPGEPASISCQASQELVHMNRNTYLHWYQQKPGQAPRLLIYKVSNRHPGVPDRFSGSGSGTDFTLKISRVEAEDVGVYYCAQGTSVPFTFGQGTKLEIK |
| 8.3 | H183/L072 VL F55K (antibody, name in Kabat numbering, V domains shown) VH: QVQLVESGGGLVQPGRSLRLSCAASGFTFSNAWMHWVRQAPGKGLEWVAQIKDKGNAYAAYYAPSVKGRFTISRDDSKNSIYLQMNSLKTEDTAVYYCHYVHYASASTVLPAFGVDAWGQGTTVTVSS VL: DIVMTQSPLSLPVTPGEPASISCQASQELVHMNRNTYLHWYQQKPGQAPRLLIYKVSNRKPGVPDRFSGSGSGTDFTLKISRVEAEDVGVYYCAQGTSVPFTFGQGTKLEIK |
| 7.2 | H183/L072 VL F55A (antibody, name in Kabat numbering, V domains shown) VH: QVQLVESGGGLVQPGRSLRLSCAASGFTFSNAWMHWVRQAPGKGLEWVAQIKDKGNAYAAYYAPSVKGRFTISRDDSKNSIYLQMNSLKTEDTAVYYCHYVHYASASTVLPAFGVDAWGQGTTVTVSS VL: DIVMTQSPLSLPVTPGEPASISCQASQELVHMNRNTYLHWYQQKPGQAPRLLIYKVSNRAPGVPDRFSGSGSGTDFTLKISRVEAEDVGVYYCAQGTSVPFTFGQGTKLEIK |
| 6.1 | H183/L072 VL F55D (antibody, name in Kabat numbering, V domains shown) VH: QVQLVESGGGLVQPGRSLRLSCAASGFTFSNAWMHWVRQAPGKGLEWVAQIKDKGNAYAAYYAPSVKGRFTISRDDSKNSIYLQMNSLKTEDTAVYYCHYVHYASASTVLPAFGVDAWGQGTTVTVSS VL: DIVMTQSPLSLPVTPGEPASISCQASQELVHMNRNTYLHWYQQKPGQAPRLLIYKVSNRDPGVPDRFSGSGSGTDFTLKISRVEAEDVGVYYCAQGTSVPFTFGQGTKLEIK |
| 3.4 | H183/L072 VL F55I (antibody, name in Kabat numbering, V domains shown) VH: QVQLVESGGGLVQPGRSLRLSCAASGFTFSNAWMHWVRQAPGKGLEWVAQIKDKGNAYAAYYAPSVKGRFTISRDDSKNSIYLQMNSLKTEDTAVYYCHYVHYASASTVLPAFGVDAWGQGTTVTVSS VL: DIVMTQSPLSLPVTPGEPASISCQASQELVHMNRNTYLHWYQQKPGQAPRLLIYKVSNRIPGVPDRFSGSGSGTDFTLKISRVEAEDVGVYYCAQGTSVPFTFGQGTKLEIK |
| 8.1 | H183/L072 VL F55G (antibody, name in Kabat numbering, V domains shown) VH: QVQLVESGGGLVQPGRSLRLSCAASGFTFSNAWMHWVRQAPGKGLEWVAQIKDKGNAYAAYYAPSVKGRFTISRDDSKNSIYLQMNSLKTEDTAVYYCHYVHYASASTVLPAFGVDAWGQGTTVTVSS VL: DIVMTQSPLSLPVTPGEPASISCQASQELVHMNRNTYLHWYQQKPGQAPRLLIYKVSNRGPGVPDRFSGSGSGTDFTLKISRVEAEDVGVYYCAQGTSVPFTFGQGTKLEIK |
